Assay results: patent publication US6566047B1, “Method for identifying neurite-growth promoting agents” (The Regents of the University of Colorado, priority 1998, dated 2003)

Experiments:
MAT-Lu cells = test: Pseudopod morphometry (pseudopod length assay), MAT-Lu cells; assay type: cell-based, rat; conditions: typically 15 min exposure
Method: Pseudopod Morphometry. To study the effects of various agents on pseudopods on a short-term basis, we measured pseudopod lengths. Cells plated in 35-mm diameter dishes at low density (1×10^4 per dish) were incubated overnight, tie medium was changed, and the experiments were run four hours later. First, cultures were shifted to serum-free medium, which was replaced one hour later by serum-free medium with or without the various agents (thrombin, AA or HETEs). Care was taken to avoid heat and light inactivation of the eicosanoids. Culture dishes were placed on a Zeiss inverted microscope equipped with a heated stage and viewed with a 16×phase contrast objective lens. Randomly selected fields of the cultures, containing generally about 20 cells each, were recorded, digitized and stored in the computer at the onset of the experiment and at different times thereafter.
In some cases, individual cells were monitored over different periods of time immediately after introduction of the reagent, either by mixing it into the medium or by applying it locally to one end of the cell. […] Cell morphology was recorded, and the captured images were analyzed with a Power Macintosh computer using NIH Image. Cell process length was measured from the center of the nucleus to the end of the process. […]

cPLA2 = test: PLA2 activity (14C-AA release) in MAT-Lu cells; assay type: biochemical, rat; conditions: dose-dependent
Method: MAT-Lu cells were plated at a density of 0.5×10^6 cells per flask (T-75) and grown as detailed above to approximately 25% confluency. On the day before the experiments, the serum level in the medium was dropped to 1%. Cells were fed with fresh 1% serum-medium 4 hrs prior to harvest. For harvesting, cells were rinsed with Ca^++,Mg^++-free HBSS, covered with 2 ml cold Ca^++-free modified Krebs buffer (220 mM sucrose, 50 mM NaCl, 5 mM KCl, 22 mM HEPES, 10 mM glucose. 1.2 mM NaH2PO4 and 1.2 mM MgCl2, pH 7.3), and placed on ice. Cells were scraped off, pelleted for 5 min at 200 rpm and re-suspended in a minimal volume of Krebs buffer. Aliquots were used to determine protein concentration (Biorad Assay) and phopholipase activity. To measure PLA2 activity 10-12 μg of cell protein was incubated with or without thrombin for 10 min on ice, ^14C-AA-labeled phospholipid substrate (7 μM. 40-60 mCi/mmol) was added, and the mixture was transferred to 37° for 20 min. The reaction was stopped by adding cold cliloroform/methanol (1:2 v/v). Lipid extraction followed by thin-layer chromatography (Negre-Aminou et al., J Neurochem 67:2599-2608 (1996)) isolated the reaction product (identified by co-migration with AA standard), which was then scraped off the plates and analyzed in a scintillation spectrometer (Beckman). In some experiments, especially those involving ^14C-AA-phosphatidylinositol as substrate, the diacylglycerol-containing band (identified by co-migration of standard) also was scraped and counted in order to measure phospholipase C (PLC) activity.

growth cone PLA2 = test: PLA2 assay in growth cone particles (GCPs); assay type: biochemical, rat; conditions: GCPs
Method: Growth Cone Particle (GCP) Isolation. GCPs were prepared as described by Pfenninger et al. (1983) and modified by Lohse et al., Dev. Brain Res., 96:38-96 (1996). Briefly, 18-day fetal brains were homogenized in approximately 8 volumes of 0.32 M sucrose containing 1 mM MgCl2, 2 mM TES buffer, pH 7.3, and 3 μM aprotinin. A low-speed supernatant (1,660 g×15 min) was loaded onto a discontinuous sucrose density gradient With steps of 0.83 M and 2.66 M sucrose containing MgCl2 and TES. The gradients were spun to equilibrium at 242,000 g for 40 min in a vertical rotor (Vti50, Beckman). The GCP fraction at the 0.32/0.83 M sucrose interface was collected and used for the experiments described below.
All assays were run in triplicate.

B1: SemaIV: recombinant semaphorin IV, repellent and putative tumor suppressor (protein, UniProt Q13275 19-785, looked up)
Semaphorin-3F: SFPTQDHLPATPRVRLSFKELKATGTAHFFNFLLNTTDYRILLKDEDHDRMYVGSKDYVLSLDLHDINREPLIIHWAASPQRIEECVLSGKDVNGECGNFVRLIQPWNRTHLYVCGTGAYNPMCTYVNRGRRAQATPWTQTQAVRGRGSRATDGALRPMPTAPRQDYIFYLEPERLESGKGKCPYDPKLDTASALINEELYAGVYIDFMGTDAAIFRTLGKQTAMRTDQYNSRWLNDPSFIHAELIPDSAERNDDKLYFFFRERSAEAPQSPAVYARIGRICLNDDGGHCCLVNKWSTFLKARLVCSVPGEDGIETHFDELQDVFVQQTQDVRNPVIYAVFTSSGSVFRGSAVCVYSMADIRMVFNGPFAHKEGPNYQWMPFSGKMPYPRPGTCPGGTFTPSMKSTKDYPDEVINFMRSHPLMYQAVYPLQRRPLVVRTGAPYRLTTIAVDQVDAADGRYEVLFLGTDRGTVQKVIVLPKDDQELEELMLEEVEVFKDPAPVKTMTISSKRQQLYVASAVGVTHLSLHRCQAYGAACADCCLARDPYCAWDGQACSRYTASSKRRSRRQDVRHGNPIRQCRGFNSNANKNAVESVQYGVAGSAAFLECQPRSPQATVKWLFQRDPGDRRREIRAEDRFLRTEQGLLLRALQLSDRGLYSCTATENNFKHVVTRVQLHVLGRDAVHAALFPPLSMSAPPPPGAGPPTPPYQELAQLLAQPEVGLIHQYCQGYWRHVPPSPREAPGAPRSPEPQDQKKPRNRRHHPPDT
MAT-Lu cells
  effect of agent alone on pseudopod length: causes pseudopod retraction in MAT-Lu cells
cPLA2
  increase of cPLA2-PE activity: several fold
Growth cone PLA2
  activation of growth cone cPLA2/PLA2: dose-dependent activation of growth cone cPLA2

B2: BDNF: brain-derived neurotrophic factor (protein, UniProt P23560 19-247, looked up)
Neurotrophic factor BDNF …: APMKEANIRGQGGLAYPGVRTHGTLESVNGPKAGSRGLTSLADTFEHVIEELLDEDQKVRPNEENNKDADLYTSRVMLSSQVPLEPPLLFLLEEYKNYLDAANMSMRVRRHSDPARRGELSVCDSISEWVTAADKKTAVDMSGGTVTVLEKVPVSKGQLKQYFYETKCNPMGYTKEGCRGIDKRHWNSQCRTTQSYVRALTMDSKKRIGWRFIRIDTSCVCTLTIKRGR
Growth cone PLA2
  activation of growth cone cPLA2/PLA2: did not significantly stimulate PLA2 activity
Growth cone PLA2; Table 3c, substrate PI, BDNF 100, IGF-1 0.75, insulin 1, thrombin 200 nM, control 159 ± 6.2
  net activity (pmol/min/mg protein): 164 ± 10.6 pmol/min/mg protein
